The source of these data is US20200223915A1 (OSAKA UNIVERSITY, published 2020).

T1: wild-type human Claudin 5 protein (human, UniProt O00501 1-218)
T1 construct: also called hCLDN5; CLDN 5
T1 sequence: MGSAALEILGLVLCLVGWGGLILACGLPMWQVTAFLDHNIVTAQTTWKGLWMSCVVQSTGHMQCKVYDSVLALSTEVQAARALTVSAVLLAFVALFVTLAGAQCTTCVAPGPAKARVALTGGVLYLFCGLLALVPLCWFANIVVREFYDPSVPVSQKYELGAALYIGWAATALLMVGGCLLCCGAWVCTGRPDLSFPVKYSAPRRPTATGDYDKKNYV

B1: antibody 3A5 (antibody, IgG2a, V domains shown)
VH: QVQLQQPGTELVKPGASVKLSCKASGYTFTSYWMHWVKQRPGQGLEWIGNINPSNGGTNYNEKFKSKATLTVDKSSTTAYMLLSSLTSEDSAVYYCARYYGSSFLYWYFDVWGTGTTVTVSS
VL: DIVMTQSHKFMSSSVGDRVSITCKASQDVGTAVAWYQQKPGQSPKILIYWASTRHTGVPDRFTGSGSGTDFTLTISNVQSEDLADYFCQQYSSYPTFGSGTKLEIKR
notes: Tested as hybridoma culture supernatant in the screening; also called antibody G
B2: antibody 1B3 (antibody, IgG2, V domains shown)
VH: QIQLVQSGPELKKPGETVKISCKASGYSFTAHGMSWVKQAPGKGLKWMGWINTYSGVPAYADDFKGRFAFSLETSPSTAFLQINNLKNEDTATYFCTRSHYDRKFGYWGQGTLVTVSA
VL: QAVVTQESALTTSPGETVTLTCRSSTGAVTTSNYANWVQEKPDHLFTGLIGDTNNRAPGVPARFSGSLIGDKAALTITGAQTGDEAIYFCALWYSNLWVFGGGTKLTVRG
notes: Tested as hybridoma culture supernatant in the screening; also called antibody E
B3: antibody 1D1 (antibody, IgG2a, V domains shown)
VH: QVQLQQPGAEHVKPGASVKLSCKASGYTFTTYWIHWVKQRPGRGLEWIGRIAPNSGGTKYNENFKSKATLTVDRPSTTAYMQLSGLTSEDSAVYYCARWDFTFGTNLDYWGQGTTLTVSS
VL: DIVMTQSQKFMSTSVGDRVSITCKASQNVRTAVAWYQQKPGQSPKALIFLASNRHTGVPDRFTGSGSGTDFTLTITNVQSEDLADYFCLQHWTYPYTFGGGTKLEIKR
notes: Tested as hybridoma culture supernatant in the screening; also called antibody F

This test has as its target T1, wild-type human Claudin 5 protein. Nature of the test: FACS screening of hybridoma supernatants on human Claudin 5-expressing HT-1080 cells against mock cells; positive clones. On the procedure: The cells were washed three times with 0.2% BSA-TBS, and then mixed with 100 μL of a secondary antibody solution (FITC conjugated goat anti-mouse IgG+IgM in 1% BSA-PBS (1:400)), followed by a reaction at 4° C. for 1 hour. The cells were washed with 0.2% BSA-TBS, and FACS analysis (FACS caliber, BD Bioscience) was performed.
For B1, the binding result is “binds”.
Then B2, with “binds”.
For the molecule B3, the binding result is on record as “binds”.
